Measured values from article PMC9036128, “An anti-ANGPTL3/8 antibody decreases circulating triglycerides by binding to a LPL-inhibitory leucine zipper-like motif” (Journal of Lipid Research, 2022).

T1: ANGPTL8 cotransfected with ANGPTL3 and the anti-ANGPTL3/8 antibody Fab in CHO cells (UniProt Q6UXH0 22-198)
T1 construct: angiopoietin-like protein 8 (ANGPTL8); Used only for negative stain TEM; source: CHO cells, cotransfected with ANGPTL3 and an anti-ANGPTL3/8 antibody Fab
T1 sequence (looked up): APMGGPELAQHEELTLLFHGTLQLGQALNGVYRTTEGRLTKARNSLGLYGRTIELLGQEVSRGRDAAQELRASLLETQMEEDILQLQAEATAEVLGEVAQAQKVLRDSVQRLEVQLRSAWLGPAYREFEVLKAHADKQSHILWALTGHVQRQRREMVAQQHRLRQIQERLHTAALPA

T2: human ANGPTL3 (human, UniProt Q9Y5C1 17-460)
T2 construct: angiopoietin-like protein 3 (ANGPTL3), human; 460-amino acid protein, CCD 17-210, linker, FLD 241-460; also called free ANGPTL3; ANGPTL3 alone; source: generated as previously described (22, 44)
T2 sequence (looked up): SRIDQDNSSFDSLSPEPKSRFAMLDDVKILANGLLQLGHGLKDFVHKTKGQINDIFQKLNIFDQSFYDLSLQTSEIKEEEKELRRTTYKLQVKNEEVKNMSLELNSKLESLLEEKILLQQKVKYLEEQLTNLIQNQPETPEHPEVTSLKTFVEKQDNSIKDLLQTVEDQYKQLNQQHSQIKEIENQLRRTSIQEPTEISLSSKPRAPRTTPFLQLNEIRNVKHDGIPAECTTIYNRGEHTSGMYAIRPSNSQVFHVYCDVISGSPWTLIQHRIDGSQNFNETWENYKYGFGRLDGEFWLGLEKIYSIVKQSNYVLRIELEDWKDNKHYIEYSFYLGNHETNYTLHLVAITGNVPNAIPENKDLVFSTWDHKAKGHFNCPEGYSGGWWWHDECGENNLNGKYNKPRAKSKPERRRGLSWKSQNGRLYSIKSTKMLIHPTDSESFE


Legend:
[1] = biological target: the molecule itself; test: negative stain transmission electron microscopy; ANGPTL3, ANGPTL8 and anti-ANGPTL3/8 antibody Fab cotransfected in CHO cells; sample diluted 100-fold into TBS, uranyl formate stain; 2D class averaging in three rounds
[2] = biological target: T1, ANGPTL8 cotransfected with ANGPTL3 and …; test: as above
[3] = biological target: T2, human ANGPTL3; test: HDX-MS; purified ANGPTL3/8 complex (12 uM) against ANGPTL3 alone (15 uM) and ANGPTL8 alone (15 uM); pH 7.4, 10 mM sodium phosphate, 150 mM NaCl, 15 C; 10 s, 2 min, 10 min, 60 min; triplicate; details: both partners purified

| stoichiometry N [2] [ANGPTL3 per ANGPTL8] | binding result [3] | Binder | stoichiometry N [1] |
| --- | --- | --- | --- |
| 3 | – | ANGPTL3 cotransfected with ANGPTL8 and the anti-ANGPTL3/8 antibody Fab in CHO cells (natural protein, UniProt Q9Y5C1 17-460, looked up, angiopoietin-like protein 3 (ANGPTL3); Used only for negative stain TEM; source: CHO cells, cotransfected with ANGPTL8 and an anti-ANGPTL3/8 antibody Fab) SRIDQDNSSFDSLSPEPKSRFAMLDDVKILANGLLQLGHGLKDFVHKTKGQINDIFQKLNIFDQSFYDLSLQTSEIKEEEKELRRTTYKLQVKNEEVKNMSLELNSKLESLLEEKILLQQKVKYLEEQLTNLIQNQPETPEHPEVTSLKTFVEKQDNSIKDLLQTVEDQYKQLNQQHSQIKEIENQLRRTSIQEPTEISLSSKPRAPRTTPFLQLNEIRNVKHDGIPAECTTIYNRGEHTSGMYAIRPSNSQVFHVYCDVISGSPWTLIQHRIDGSQNFNETWENYKYGFGRLDGEFWLGLEKIYSIVKQSNYVLRIELEDWKDNKHYIEYSFYLGNHETNYTLHLVAITGNVPNAIPENKDLVFSTWDHKAKGHFNCPEGYSGGWWWHDECGENNLNGKYNKPRAKSKPERRRGLSWKSQNGRLYSIKSTKMLIHPTDSESFE | 3 |
| – | binds | human ANGPTL8 as it stands in the ANGPTL3/8 complex (HSA fusion partner removed) (natural protein, UniProt Q6UXH0 22-198, looked up, angiopoietin-like protein 8 (ANGPTL8), human; 198-amino acid protein; same expression construct as HIS-HSA-ANGPTL8; also called ANGPTL8 complexed with ANGPTL3; source: part of the ANGPTL3/8 complex generated as previously described (22, 44); HSA fusion partner removed by proteolysis; not shown: His, N-terminal, cleaved; HSA, N-terminal, cleaved) APMGGPELAQHEELTLLFHGTLQLGQALNGVYRTTEGRLTKARNSLGLYGRTIELLGQEVSRGRDAAQELRASLLETQMEEDILQLQAEATAEVLGEVAQAQKVLRDSVQRLEVQLRSAWLGPAYREFEVLKAHADKQSHILWALTGHVQRQRREMVAQQHRLRQIQERLHTAALPA | – |
